Laboratory results from paper PMC11371640, “Structural deficits in key domains of Shank2 lead to alterations in postsynaptic nanoclusters and to a neurodevelopmental disorder in humans” (Molecular Psychiatry, 2022).

B1: His6-SUMO-tagged SH3 to PDZ domains of Shank2 (R520-D727), WT [not stated (human or rat cDNA cloned)] / synthetic peptide of the complete PDZ ligand of GKAP (last 15 amino acids of GKAP/SAPAP1) [not stated] (parent complex)
chain 1: RKLYSAVPGRLFVAVKPYQPQVDGEIPLHRGDRVKVLSIGEGGFWEGSARGHIGWFPAECVEEVQCKPRDSQAETRADRSKKLFRHYTVGSYDSFDTSSDCIIEEKTVVLQKKDNEGFGFVLRGAKADTPIEEFTPTPAFPALQYLESVDEGGVAWQAGLRTGDFLIEVNNENVVKVGHRQVVNMIRQGGNHLVLKVVTVTRNLDPDD
chain 2: ADSIEIYIPEAQTRL

Variants of: B1
Assay: ITC; parent: 320 nM

Variant | Kd [nM]
chain 1 G124R | 22500

Variants of: B1
Assay: ITC; parent: 319 nM

Variant | Kd [nM]
chain 1 G124R | 22000

Variants of: B1
Assay: ITC; parent: 319 nM
Remark: another data set of the same source

Variant | Kd [nM]
chain 1 S91Y | 910
chain 1 V198F | 848
chain 1 N171S | 411
